Test results from US9481899B2, “Methods and compositions for producing hydrocarbons” (priority 2008, dated 2016).

B1: PCC7942 orf1594: Synechococcus elongatus PCC7942 orf1594, putative aldehyde-generating enzyme, named Acyl-ACP reductase (protein, listed as Synechococcus elongatus)
chain: MFGLIGHLTSLEQARDVSRRMGYDEYADQGLEFWSSAPPQIVDEITVTSATGKVIHGRYIESCFLPEMLAARRFKTATRKVLNAMSHAQKHGIDISALGGFTSIIFENFDLASLRQVRDTTLEFERFTTGNTHTAYVICRQVEAAAKTLGIDITQATVAVVGATGDIGSAVCRWLDLKLGVGDLILTARNQERLDNLQAELGRGKILPLEAALPEADFIVWVASMPQGVVIDPATLKQPCVLIDGGYPKNLGSKVQGEGIYVLNGGVVEHCFDIDWQIMSAAEMARPERQMFACFAEAMLLEFEGWHTNFSWGRNQITIEKMEAIGEASVRHGFQPLALAI
B2: SEQ ID NO: 52: Synechococcus sp. RS9917 RS9917_09941, putative decarbonylase, codon optimized for E. coli (protein, listed as Synechococcus sp.)
chain: MPTLETSEVAVLEDSMASGSRLPDFTSEAYKDAYSRINAIVIEGEQEAHDNYIALGTLIPEQKDELARLARMEMKHMKGFTSCGRNLGVEADLPFAKEFFAPLHGNFQAALQEGKVVTCLLIQALLIEAFAISAYHIYIPVADPFARKITEGVVKDEYTHLNYGQEWLKANFEASKDELMEANKANLPLIRSMLEQVAADAAVLQMEKEDLIEDFLIAYQEALCEIGFSSRDIARMAAAALAV
B3: PMM0533: P. mariunus CCMP1986 PMM0533, putative aldehyde-generating enzyme (protein, listed as Prochlorococcus marinus)
chain: MFGLIGHSTSFEDAKRKASLLGFDHIADGDLDVWCTAPPQLVENVEVKSAIGISIEGSYIDSCFVPEMLSRFKTARRKVLNAMELAQKKGINITALGGFTSIIFENFNLLQHKQIRNTSLEWERFTTGNTHTAWVICRQLEMNAPKIGIDLKSATVAVVGATGDIGSAVCRWLINKTGIGELLLVARQKEPLDSLQKELDGGTIKNLDEALPEADIVVWVASMPKTMEIDANNLKQPCLMIDGGYPKNLDEKFQGNNIHVVKGGIVRFFNDIGWNMMELAEMQNPQREMFACFAEAMILEFEKCHTNFSWGRNNISLEKMEFIGAASVKHGFSAIGLDKHPKVLAV
B4: sll0209: Synechocystis sp. PCC6803 sll0209, acyl-ACP reductase (protein, listed as Synechocystis sp.)
chain: MFGLIGHLTSLEHAQAVAEDLGYPEYANQGLDFWCSAPPQVVDNFQVKSVTGQVIEGKYVESCFLPEMLTQRRIKAAIRKILNAMALAQKVGLDITALGGFSSIVFEEFNLKQNNQVRNVELDFQRFTTGNTHTAYVICRQVESGAKQLGIDLSQATVAVCGATGDIGSAVCRWLDSKHQVKELLLIARNRQRLENLQEELGRGKIMDLETALPQADIIVWVASMPKGVEIAGEMLKKPCLIVDGGYPKNLDTRVKADGVHILKGGIVEHSLDITWEIMKIVEMDIPSRQMFACFAEAILLEFEGWRTNFSWGRNQISVNKMEAIGEASVKHGFCPLVAL
B5: SEQ ID NO: 19: Prochlorococcus marinus CCMP1986 PMM0532, putative decarbonylase (protein, listed as Prochlorococcus marinus)
chain: MQTLESNKKTNLENSIDLPDFTTDSYKDAYSRINAIVIEGEQEAHDNYISLATLIPNELEELTKLAKMELKHKRGFTACGRNLGVQADMIFAKEFFSKLHGNFQVALSNGKTTTCLLIQAILIEAFAISAYHVYIRVADPFAKKITQGVVKDEYLHLNYGQEWLKENLATCKDELMEANKVNLPLIKKMLDQVSEDASVLAMDREELMEEFMIAYQDTLLEIGLDNREIARMAMAAIV
B6: ATCC51142 cce_1430: Cyanothece sp. ATCC51142 cce_1430, putative aldehyde-generating enzyme (protein, listed as Cyanothece sp.)
chain: MFGLIGHLTSLEHAHSVADAFGYGPYATQGLDLWCSAPPQFVEHFHVTSITGQTIEGKYIESAFLPEMLIKRRIKAAIRKILNAMAFAQKNNLNITALGGFSSIIFEEFNLKENRQVRNVSLEFDRFTTGNTHTAYIICRQVEQASAKLGIDLSQATVAICGATGDIGSAVCRWLDRKTDTQELFLIARNKERLQRLQDELGRGKIMGLEEALPEADIIVWVASMPKGVEINAETLKKPCLIIDGGYPKNLDTKIKHPDVHILKGGIVEHSLDIDWKIMETVNMDVPSRQMFACFAEAILLEFEQWHTNFSWGRNQITVTKMEQIGEASVKHGLQPLLSW
B7: SEQ ID NO: 53: Synechococcus sp. RS9917 RS9917_12945, putative decarbonylase, codon optimized for E. coli (protein, listed as Synechococcus sp.)
chain: MTQLDFASAAYREAYSRINGVVIVGEGLANRHFQMLARRIPADRDELQRLGRMEGDHASAFVGCGRNLGVVADLPLARRLFQPLHDLFKRHDHDGNRAECLVIQGLIVECFAVAAYRHYLPVADAYARPITAAVMNDESEHLDYAETWLQRHFDQVKARVSAVVVEALPLTLAMLQSLAADMRQIGMDPVETLASFSELFREALESVGFEAVEARRLLMRAAARMV

Legend:
Format in all cases: cell-based
E. coli MG1655 [1] = assay: Heterologous expression of aldehyde-generating enzyme alone in E. coli, GC-MS of fatty aldehydes and fatty alcohols
Procedure: (§1) The genomic DNA encoding Synechococcus elongatus PCC7942 orf1594 (YP_400611; putative aldehyde-generating enzyme) (SEQ ID NO:65) was amplified and cloned into the NcoI and EcoRI sites of vector OP-80 (pCL1920 derivative) under the control of the Ptrc promoter. The resulting construct (“OP80-PCC7942_1594”) was transformed into E. coli MG1655 and the cells were grown at 37° C. in M9 minimal media with 1% (w/v) glucose as carbon source and supplemented with 100 μg/mL spectinomycin. When the culture reached OD600 of 0.8-1.0, it was induced with 1 mM IPTG and cells were grown for an additional 18-20 h at 37° C. Cells from 0.5 mL of culture were extracted with 0.5 mL of ethyl acetate. After sonication for 60 min, the sample was centrifuged at 15,000 rpm for 5 min. The solvent layer was analyzed by GC-MS as described in Example 1.
The genomic DNA encoding Cyanothece sp. ATCC51142 cce_1430 (YP_001802846; putative aldehyde-generating enzyme) (SEQ ID NO:69) was amplified and cloned into the NcoI and EcoRI sites of vector OP-80 (pCL1920 derivative) under the control of the Ptrc promoter. The resulting construct was transformed into E. coli MG1655 and the cells were grown at 37° C. in M9 minimal media with 1% (w/v) glucose as carbon source and supplemented with 100 μg/mL spectinomycin. The cells were cultured and extracted as in Example 3 and analyzed by GC-MS as described in Example 26.
The genomic DNA encoding P. mariunus CCMP1986 PMM0533 (NP_892651; putative aldehyde-generating enzyme) (SEQ ID NO:71) and Prochlorococcus mariunus CCMP1986 PMM0532 (NP_892650; putative decarbonylase) (SEQ ID NO:19) were amplified and cloned into the NcoI and EcoRI sites of vector OP-80 and the NdeI and XhoI sites of vector OP-183, respectively. The resulting constructs were separately transformed and cotransformed into E. coli MG1655 and the cells were grown at 37° C. in M9 minimal media supplemented with 100 μg/mL spectinomycin and 100 μg/mL carbenicillin. The cells were cultured and extracted as in Example 3 and analyzed by GC-MS as described in Example 26.
The genomic DNA encoding Synechocystis sp. PCC6803 sll0208 (NP_442147; putative fatty aldehyde decarbonylase) (SEQ ID NO:3) was synthesized and cloned into the NdeI and XhoI sites of vector OP-183 (pACYC derivative) under the control of the Ptrc promoter. The genomic DNA encoding Synechocystis sp. PCC6803 sll0209 (NP_442146; acyl-ACP reductase) (SEQ ID NO:67) was synthesized and cloned into the NcoI and EcoRI sites of vector OP-183 (pACYC derivative) under the control of the Ptrc promoter. The resulting constructs were cotransformed with into E. coli MG1655 ΔfadE lacZ::Ptrc ′tesA-fadD. […] The cells were cultured and extracted as in Example 3 and analyzed by GC-MS as described in Example 26.

E. coli MG1655 [2] = assay: Coexpression of decarbonylase and aldehyde-generating enzyme in E. coli, GC-MS of hydrocarbons; conditions: for Production of Alkanes and Alkenes: alkane/alkene biosynthetic polypeptide coexpressed in E. coli with the aldehyde biosynthetic polypeptide of the same table row; for fatty aldehyde decarbonylase activity in E. coli: cotransformed with S. elongatus PCC7942_1594 into E. coli MG1655, M9 minimal media, 37° C.
Excerpt: Seven cyanobacteria, whose complete genome sequences are publicly available, were selected for verification and/or detection of alkane biosynthesis: Synechococcus elongatus PCC7942, Synechococcus elongatus PCC6301, Anabaena variabilis ATCC29413, Synechocystis sp. PCC6803, Nostoc punctiforme PCC73102, Gloeobacter violaceus ATCC 29082, and Prochlorococcus marinus CCMP1986. Only the first three cyanobacterial strains from this list had previously been reported to contain alkanes (Han et al., J. Am. Chem. Soc. 91:5156-5159 (1969); Fehler et al., Biochem. 9:418-422 (1970)). The strains were grown photoautotrophically in shake flasks in 100 mL of the appropriate media (listed in Table 8) for 3-7 days at 30° C. at a light intensity of approximately 3,500 lux. Cells were extracted for alkane detection as follows: cells from 1 mL culture volume were centrifuged for 1 min at 13,000 rpm, the cell pellets were resuspended in methanol, vortexed for 1 min and then sonicated for 30 min. After centrifugation for 3 min at 13,000 rpm, the supernatants were transferred to fresh vials and analyzed by GC-MS. The samples were analyzed on either 30 m DP-5 capillary column (0.25 mm internal diameter) or a 30 m high temperature DP-5 capillary column (0.25 mm internal diameter) using the following method.
After a 1 μL splitless injection (inlet temperature held at 300° C.) onto the GC/MS column, the oven was held at 100° C. for 3 mins. The temperature was ramped up to 320° C. at a rate of 20° C./min. The oven was held at 320° C. for an additional 5 min. The flow rate of the carrier gas helium was 1.3 mL/min. The MS quadrapole scanned from 50 to 550 m/z. Retention times and fragmentation patterns of product peaks were compared with authentic references to confirm peak identity.
as §1
The genomic DNA encoding Synechococcus elongatus PCC7942 orf1593 (YP_400610; putative decarbonylase) (SEQ ID NO:1) was amplified and cloned into the NdeI and XhoI sites of vector OP-183 (pACYC derivative) under the control of the Ptrc promoter. The resulting construct was cotransformed with OP80-PCC7942_1594 into E. coli MG1655 and the cells were grown at 37° C. in M9 minimal media supplemented with 100 μg/mL spectinomycin and 100 μg/mL carbenicillin. The cells were cultured and extracted as in Example 3 and analyzed by GC-MS as described in Example 1. […]

[3] = system: E. coli MG1655 ΔfadD lacZ::Ptrc-′tesA; assay: Decarbonylase expression in fatty aldehyde-producing E. coli strain expressing MSMEG_5739; conditions: coexpressed with M. smegmatis carboxylic acid reductase MSMEG_5739
[4] = enzyme expressed alone in E. coli MG1655

Row | Molecule | production of fatty aldehydes and fatty alcohols (E. coli MG1655 [1]; [4]) | Production of Alkanes and Alkenes (E. coli MG1655 [2]) | fatty aldehyde decarbonylase activity in E. coli (E. coli MG1655 [2]) | conversion of fatty aldehydes provided by MSMEG_5739 to alkanes [3] | production of fatty aldehydes and fatty alcohols (E. coli MG1655 [1]; enzyme expressed alone in E. coli MG1655 ΔfadE lacZ::Ptrc ′tesA-fadD (fatty acyl-CoA-producing))
1 | B1 | generates aldehydes in-vivo |  |  |  | 
2 | B2 |  | yes | active fatty aldehyde decarbonylase | converted fatty aldehydes provided by MSMEG_5739 to the corresponding alkanes | 
3 | B3 | did not produce any fatty aldehydes or fatty alcohols |  |  |  | 
4 | B4 |  |  |  |  | did not produce any fatty aldehydes or fatty alcohols
5 | B5 |  | yes | active fatty aldehyde decarbonylase | converted fatty aldehydes provided by MSMEG_5739 to the corresponding alkanes | 
6 | B6 | generates aldehydes in-vivo |  |  |  | 
7 | B7 |  | yes | active fatty aldehyde decarbonylase | converted fatty aldehydes provided by MSMEG_5739 to the corresponding alkanes | 
